Laboratory results: US20260117202A1
Values joined by “and” are separate entries in the source; they are usually repeats but may differ in a detail not shown here. Equal values may be shown once.

Legend:
FHCS-1 (RSV strain A2) [1] = biological target: FHCS-1 (RSV strain A2) (UniProt P03420); assay: ELISA; F coated 625 ng/ml; stored -80° C.
FHCS-4 (RSV strain A2) [2] = biological target: FHCS-4 (RSV strain A2) (UniProt P03420); assay: ELISA; F coated 625 ng/ml; stored -80° C.
FHCS-2 (RSV strain A2) [3] = biological target: FHCS-2 (RSV strain A2) (UniProt P03420); assay: ELISA; F coated 625 ng/ml; stored -80° C.
FHCS-1 (RSV strain A2) [4] = biological target: FHCS-1 (RSV strain A2) (UniProt P03420); assay: ELISA; F coated 10000 ng/ml; stored 37° C. 4 W
FHCS-4 (RSV strain A2) [5] = biological target: FHCS-4 (RSV strain A2) (UniProt P03420); assay: ELISA; F coated 10000 ng/ml; stored 37° C. 4 W
FHCS-2 (RSV strain A2) [6] = biological target: FHCS-2 (RSV strain A2) (UniProt P03420); assay: ELISA; F coated 10000 ng/ml; stored 37° C. 4 W
FHCS-1 (RSV strain A2) [7] = biological target: FHCS-1 (RSV strain A2) (UniProt P03420); assay: ELISA; F coated 312.5 ng/ml; stored -80° C.
FHCS-4 (RSV strain A2) [8] = biological target: FHCS-4 (RSV strain A2) (UniProt P03420); assay: ELISA; F coated 312.5 ng/ml; stored -80° C.
FHCS-2 (RSV strain A2) [9] = biological target: FHCS-2 (RSV strain A2) (UniProt P03420); assay: ELISA; F coated 312.5 ng/ml; stored -80° C.
FHCS-1 (RSV strain A2) [10] = biological target: FHCS-1 (RSV strain A2) (UniProt P03420); assay: ELISA; F coated 1250 ng/ml; stored -80° C.
FHCS-4 (RSV strain A2) [11] = biological target: FHCS-4 (RSV strain A2) (UniProt P03420); assay: ELISA; F coated 1250 ng/ml; stored -80° C.
FHCS-1 (RSV strain A2) [12] = biological target: FHCS-1 (RSV strain A2) (UniProt P03420); assay: ELISA; F coated 2500 ng/ml; stored -80° C.
FHCS-4 (RSV strain A2) [13] = biological target: FHCS-4 (RSV strain A2) (UniProt P03420); assay: ELISA; F coated 2500 ng/ml; stored -80° C.
FHCS-2 (RSV strain A2) [14] = biological target: FHCS-2 (RSV strain A2) (UniProt P03420); assay: ELISA; F coated 2500 ng/ml; stored -80° C.
FHCS-1 (RSV strain A2) [15] = biological target: FHCS-1 (RSV strain A2) (UniProt P03420); assay: ELISA; F coated 5000 ng/ml; stored 37° C. 4 W
FHCS-4 (RSV strain A2) [16] = biological target: FHCS-4 (RSV strain A2) (UniProt P03420); assay: ELISA; F coated 5000 ng/ml; stored 37° C. 4 W
FHCS-2 (RSV strain A2) [17] = biological target: FHCS-2 (RSV strain A2) (UniProt P03420); assay: ELISA; F coated 5000 ng/ml; stored 37° C. 4 W
FHCS-1 (RSV strain A2) [18] = biological target: FHCS-1 (RSV strain A2) (UniProt P03420); assay: ELISA; F coated 78.13 ng/ml; stored 37° C. 2 W
FHCS-4 (RSV strain A2) [19] = biological target: FHCS-4 (RSV strain A2) (UniProt P03420); assay: ELISA; F coated 78.13 ng/ml; stored 37° C. 2 W
FHCS-2 (RSV strain A2) [20] = biological target: FHCS-2 (RSV strain A2) (UniProt P03420); assay: ELISA; F coated 78.13 ng/ml; stored 37° C. 2 W
FHCS-1 (RSV strain A2) [21] = biological target: FHCS-1 (RSV strain A2) (UniProt P03420); assay: ELISA; F coated 2500 ng/ml; stored -80° C.; remark: listed apart in the source
FHCS-4 (RSV strain A2) [22] = biological target: FHCS-4 (RSV strain A2) (UniProt P03420); assay: ELISA; F coated 2500 ng/ml; stored -80° C.; remark: listed apart in the source
FHCS-2 (RSV strain A2) [23] = biological target: FHCS-2 (RSV strain A2) (UniProt P03420); assay: ELISA; F coated 2500 ng/ml; stored -80° C.; remark: listed apart in the source
FHCS-1 (RSV strain A2) [24] = biological target: FHCS-1 (RSV strain A2) (UniProt P03420); assay: ELISA; F coated 78.13 ng/ml; stored 37° C. 4 W
FHCS-4 (RSV strain A2) [25] = biological target: FHCS-4 (RSV strain A2) (UniProt P03420); assay: ELISA; F coated 78.13 ng/ml; stored 37° C. 4 W
FHCS-2 (RSV strain A2) [26] = biological target: FHCS-2 (RSV strain A2) (UniProt P03420); assay: ELISA; F coated 78.13 ng/ml; stored 37° C. 4 W
FHCS-1 (RSV strain A2) [27] = biological target: FHCS-1 (RSV strain A2) (UniProt P03420); assay: ELISA; F coated 2500 ng/ml; stored 37° C. 2 W
FHCS-4 (RSV strain A2) [28] = biological target: FHCS-4 (RSV strain A2) (UniProt P03420); assay: ELISA; F coated 2500 ng/ml; stored 37° C. 2 W
FHCS-1 (RSV strain A2) [29] = biological target: FHCS-1 (RSV strain A2) (UniProt P03420); assay: ELISA; F coated 1250 ng/ml; stored -80° C.; remark: listed apart in the source
FHCS-4 (RSV strain A2) [30] = biological target: FHCS-4 (RSV strain A2) (UniProt P03420); assay: ELISA; F coated 1250 ng/ml; stored -80° C.; remark: listed apart in the source
FHCS-2 (RSV strain A2) [31] = biological target: FHCS-2 (RSV strain A2) (UniProt P03420); assay: ELISA; F coated 1250 ng/ml; stored -80° C.
FHCS-1 (RSV strain A2) [32] = biological target: FHCS-1 (RSV strain A2) (UniProt P03420); assay: ELISA; F coated 625 ng/ml; stored 37° C. 2 W
FHCS-4 (RSV strain A2) [33] = biological target: FHCS-4 (RSV strain A2) (UniProt P03420); assay: ELISA; F coated 625 ng/ml; stored 37° C. 2 W
FHCS-2 (RSV strain A2) [34] = biological target: FHCS-2 (RSV strain A2) (UniProt P03420); assay: ELISA; F coated 625 ng/ml; stored 37° C. 2 W
FHCS-1 (RSV strain A2) [35] = biological target: FHCS-1 (RSV strain A2) (UniProt P03420); assay: ELISA; F coated 156.3 ng/ml; stored -80° C.
FHCS-4 (RSV strain A2) [36] = biological target: FHCS-4 (RSV strain A2) (UniProt P03420); assay: ELISA; F coated 156.3 ng/ml; stored -80° C.
FHCS-2 (RSV strain A2) [37] = biological target: FHCS-2 (RSV strain A2) (UniProt P03420); assay: ELISA; F coated 156.3 ng/ml; stored -80° C.

AM14 monoclonal antibody
OD value (FHCS-1 (RSV strain A2) [1]): 0.004 OD and 0.007 OD
OD value (FHCS-4 (RSV strain A2) [2]): 0.005 OD and 0.006 OD
OD value (FHCS-2 (RSV strain A2) [3]): 0.008 OD
OD value (FHCS-1 (RSV strain A2) [4]): 1.87 OD and 2.17 OD
OD value (FHCS-4 (RSV strain A2) [5]): 1.76 OD and 2.01 OD
OD value (FHCS-2 (RSV strain A2) [6]): 2.11 OD and 2.23 OD
OD value (FHCS-1 (RSV strain A2) [7]): 0.003 OD and 0.006 OD
OD value (FHCS-4 (RSV strain A2) [8]): 0.008 OD and 0.006 OD
OD value (FHCS-2 (RSV strain A2) [9]): 0.007 OD
OD value (FHCS-1 (RSV strain A2) [10]): 0.011 OD and 0.015 OD
OD value (FHCS-4 (RSV strain A2) [11]): 0.007 OD and 0.006 OD
OD value (FHCS-1 (RSV strain A2) [12]): 0.034 OD and 0.039 OD
OD value (FHCS-4 (RSV strain A2) [13]): 0.008 OD and 0.007 OD
OD value (FHCS-2 (RSV strain A2) [14]): 0.051 OD and 0.056 OD
OD value (FHCS-1 (RSV strain A2) [15]): 1.17 OD and 1.33 OD
OD value (FHCS-4 (RSV strain A2) [16]): 0.665 OD and 0.438 OD
OD value (FHCS-2 (RSV strain A2) [17]): 1.95 OD and 1.48 OD

Synagis® (antibody)
OD value (FHCS-1 (RSV strain A2) [18]): 0.01 OD and 0.015 OD
OD value (FHCS-4 (RSV strain A2) [19]): 0.018 OD and 0.015 OD
OD value (FHCS-2 (RSV strain A2) [20]): 0.018 OD and 0.022 OD
OD value (FHCS-1 (RSV strain A2) [21]): 1.5 OD and 1.61 OD
OD value (FHCS-4 (RSV strain A2) [22]): 0.947 OD and 0.991 OD
OD value (FHCS-2 (RSV strain A2) [23]): 1.78 OD and 1.8 OD
OD value (FHCS-1 (RSV strain A2) [24]): 0.025 OD and 0.032 OD
OD value (FHCS-4 (RSV strain A2) [25]): 0.019 OD and 0.025 OD
OD value (FHCS-2 (RSV strain A2) [26]): 0.03 OD and 0.028 OD
OD value (FHCS-1 (RSV strain A2) [27]): 1.88 OD and 1.43 OD
OD value (FHCS-4 (RSV strain A2) [28]): 1.46 OD and 1.58 OD
OD value (FHCS-1 (RSV strain A2) [29]): 0.635 OD and 0.642 OD
OD value (FHCS-4 (RSV strain A2) [30]): 0.321 OD and 0.328 OD
OD value (FHCS-2 (RSV strain A2) [31]): 0.928 OD
OD value (FHCS-1 (RSV strain A2) [32]): 0.123 OD and 0.125 OD
OD value (FHCS-4 (RSV strain A2) [33]): 0.187 OD and 0.166 OD
OD value (FHCS-2 (RSV strain A2) [34]): 0.211 OD and 0.227 OD
OD value (FHCS-1 (RSV strain A2) [35]): 0.021 OD and 0.019 OD
OD value (FHCS-4 (RSV strain A2) [36]): 0.016 OD
OD value (FHCS-2 (RSV strain A2) [37]): 0.043 OD and 0.038 OD
